# Measurements from US20230357838.
# Tests used:
# [1] = test system: T1, CrDa01 (Clostridium roseum)
# T1 sequence: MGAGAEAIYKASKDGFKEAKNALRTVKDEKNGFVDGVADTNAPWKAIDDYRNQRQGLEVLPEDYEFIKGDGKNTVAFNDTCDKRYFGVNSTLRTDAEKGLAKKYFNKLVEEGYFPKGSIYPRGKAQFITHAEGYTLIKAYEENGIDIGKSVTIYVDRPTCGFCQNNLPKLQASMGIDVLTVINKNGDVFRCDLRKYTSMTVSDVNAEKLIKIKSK
# MGYPDa829 = test system: T2, MGYPDa829
# T2 sequence: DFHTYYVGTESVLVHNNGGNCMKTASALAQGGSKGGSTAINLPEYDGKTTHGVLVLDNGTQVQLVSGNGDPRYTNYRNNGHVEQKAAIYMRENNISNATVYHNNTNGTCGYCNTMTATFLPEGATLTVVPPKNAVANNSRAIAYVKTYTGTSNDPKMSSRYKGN
# [2] = test system: T3, AvDa02 (Actinomyces viscosus)
# T3 sequence: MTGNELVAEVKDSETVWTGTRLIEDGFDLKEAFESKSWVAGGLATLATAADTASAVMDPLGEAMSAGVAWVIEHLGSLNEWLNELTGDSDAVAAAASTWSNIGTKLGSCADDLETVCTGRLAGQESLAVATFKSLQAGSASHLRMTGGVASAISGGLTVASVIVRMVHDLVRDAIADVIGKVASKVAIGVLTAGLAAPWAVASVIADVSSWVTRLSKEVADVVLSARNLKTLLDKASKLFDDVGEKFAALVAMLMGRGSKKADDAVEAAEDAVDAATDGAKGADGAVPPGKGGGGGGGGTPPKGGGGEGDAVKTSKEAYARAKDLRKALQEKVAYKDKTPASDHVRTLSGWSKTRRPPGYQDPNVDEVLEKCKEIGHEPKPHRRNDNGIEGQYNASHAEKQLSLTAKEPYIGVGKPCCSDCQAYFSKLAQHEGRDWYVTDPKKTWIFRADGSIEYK
# Sso7d_RhDa01_extN10 = test system: T4, Sso7d_RhDa01_extN10
# T4 sequence: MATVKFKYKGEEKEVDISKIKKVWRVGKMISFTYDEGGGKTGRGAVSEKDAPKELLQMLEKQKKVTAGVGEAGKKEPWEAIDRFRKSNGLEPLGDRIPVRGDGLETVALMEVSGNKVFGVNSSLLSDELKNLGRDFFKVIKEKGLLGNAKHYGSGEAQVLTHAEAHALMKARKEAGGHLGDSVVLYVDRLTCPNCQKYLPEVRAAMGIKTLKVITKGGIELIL
# LbDa02 = test system: T5, LbDa02; conditions: NGS assay; Table 1 prints SEQ 19 for this name
# T5 sequence: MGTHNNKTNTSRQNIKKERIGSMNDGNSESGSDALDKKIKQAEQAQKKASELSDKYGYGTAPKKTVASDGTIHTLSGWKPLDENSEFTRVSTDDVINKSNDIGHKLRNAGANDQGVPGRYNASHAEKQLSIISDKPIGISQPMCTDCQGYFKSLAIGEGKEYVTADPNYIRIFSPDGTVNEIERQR
# DddA = DddA (UniProt P0DUH5)
# Sso7d_VTAGVGEAG_MGYPDa20 = test system: T6, Sso7d_VTAGVGEAG_MGYPDa20
# T6 sequence: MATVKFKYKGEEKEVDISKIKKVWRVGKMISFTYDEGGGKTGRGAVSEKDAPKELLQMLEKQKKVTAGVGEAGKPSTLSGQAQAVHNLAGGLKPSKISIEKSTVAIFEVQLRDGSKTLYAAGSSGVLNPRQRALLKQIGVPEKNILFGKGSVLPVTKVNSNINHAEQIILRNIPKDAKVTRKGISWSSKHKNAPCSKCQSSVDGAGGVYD
# RhDa01 = test system: T7, RhDa01; conditions: CG 0.23, CH 0.00
# T7 sequence: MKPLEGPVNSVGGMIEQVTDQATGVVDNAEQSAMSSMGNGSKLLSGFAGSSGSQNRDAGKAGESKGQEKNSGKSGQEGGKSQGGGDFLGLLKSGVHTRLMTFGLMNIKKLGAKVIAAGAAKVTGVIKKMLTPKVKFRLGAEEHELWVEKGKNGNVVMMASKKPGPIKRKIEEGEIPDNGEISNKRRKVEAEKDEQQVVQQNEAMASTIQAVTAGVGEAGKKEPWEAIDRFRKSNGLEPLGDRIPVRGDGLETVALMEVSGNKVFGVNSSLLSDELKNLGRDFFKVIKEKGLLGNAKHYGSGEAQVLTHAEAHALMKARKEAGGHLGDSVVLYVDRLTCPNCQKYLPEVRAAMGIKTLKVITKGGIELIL
# RhDa01_extN10 = test system: T8, RhDa01_extN10; conditions: CG 0.32, CH 0.00
# T8 sequence: T7 sequence
# [3] = test system: d22_PeDa01 (Pseudomonas entomophila)
# Sso7d_GGGVTS_AcDa01 = test system: T9, Sso7d_GGGVTS_AcDa01; conditions: CG 0.79, CH 0.03
# T9 sequence: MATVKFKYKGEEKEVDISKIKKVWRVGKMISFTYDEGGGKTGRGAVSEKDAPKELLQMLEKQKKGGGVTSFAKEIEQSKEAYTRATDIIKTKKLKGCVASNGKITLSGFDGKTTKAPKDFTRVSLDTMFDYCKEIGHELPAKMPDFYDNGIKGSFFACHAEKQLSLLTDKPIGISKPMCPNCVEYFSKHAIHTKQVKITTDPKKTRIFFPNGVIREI
# HcDa01 = test system: T10, HcDa01
# T10 sequence: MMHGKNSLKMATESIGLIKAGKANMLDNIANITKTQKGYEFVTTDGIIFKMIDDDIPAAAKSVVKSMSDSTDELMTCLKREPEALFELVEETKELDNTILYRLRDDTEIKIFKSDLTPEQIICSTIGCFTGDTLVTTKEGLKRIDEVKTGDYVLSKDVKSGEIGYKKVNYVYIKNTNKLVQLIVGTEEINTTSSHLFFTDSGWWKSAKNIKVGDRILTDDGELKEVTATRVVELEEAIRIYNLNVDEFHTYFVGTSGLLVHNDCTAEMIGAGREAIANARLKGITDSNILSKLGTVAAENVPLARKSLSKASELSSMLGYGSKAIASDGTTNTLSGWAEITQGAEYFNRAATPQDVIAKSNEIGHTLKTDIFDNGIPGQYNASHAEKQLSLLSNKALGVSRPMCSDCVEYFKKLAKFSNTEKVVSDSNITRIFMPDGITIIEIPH
# [4] = test system: T11, Sso7d_LSGLSDDKLKEI_AcDa01; conditions: CG 0.99, CH 0.17
# T11 sequence: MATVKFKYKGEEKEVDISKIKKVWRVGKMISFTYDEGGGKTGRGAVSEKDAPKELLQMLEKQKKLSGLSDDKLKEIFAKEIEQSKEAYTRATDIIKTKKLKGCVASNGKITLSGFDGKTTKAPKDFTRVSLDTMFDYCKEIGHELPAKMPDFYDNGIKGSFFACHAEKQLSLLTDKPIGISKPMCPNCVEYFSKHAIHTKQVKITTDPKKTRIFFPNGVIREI
substance,measurement,setting,value
unmodified dsDNA (E. coli C2566 genomic),activity (fraction deaminated),[1],0.811
same,activity (fraction deaminated),MGYPDa829,0.956
same,activity (fraction deaminated),[2],0.998
same,activity (fraction deaminated),Sso7d_RhDa01_extN10,0.93
same,activity (fraction deaminated),LbDa02,1
same,activity (fraction deaminated),DddA,0.27
same,activity (fraction deaminated),Sso7d_VTAGVGEAG_MGYPDa20,0.72
same,activity (fraction deaminated),RhDa01,0.07
same,activity (fraction deaminated),RhDa01_extN10,0.1
same,activity (fraction deaminated),[3],0.79
same,activity (fraction deaminated),Sso7d_GGGVTS_AcDa01,0.26
same,activity (fraction deaminated),HcDa01,0
same,activity (fraction deaminated),[4],0.41
same,activity (fraction deaminated),SsDa01,0
